Assay results: PMC3985851 (Biochemistry, 2014)

Legend:
micro(μ)-plasmin = micro(μ)-plasmin (human, UniProt P00747 561-580; P00747 581-810); assay: SEC
Glu-plasminogen = assay: SPR
[1] = molecular target: tissue plasminogen activator (tPA, Alteplase); assay: SPR

Chain of Glu-plasminogen (P00747 20-810): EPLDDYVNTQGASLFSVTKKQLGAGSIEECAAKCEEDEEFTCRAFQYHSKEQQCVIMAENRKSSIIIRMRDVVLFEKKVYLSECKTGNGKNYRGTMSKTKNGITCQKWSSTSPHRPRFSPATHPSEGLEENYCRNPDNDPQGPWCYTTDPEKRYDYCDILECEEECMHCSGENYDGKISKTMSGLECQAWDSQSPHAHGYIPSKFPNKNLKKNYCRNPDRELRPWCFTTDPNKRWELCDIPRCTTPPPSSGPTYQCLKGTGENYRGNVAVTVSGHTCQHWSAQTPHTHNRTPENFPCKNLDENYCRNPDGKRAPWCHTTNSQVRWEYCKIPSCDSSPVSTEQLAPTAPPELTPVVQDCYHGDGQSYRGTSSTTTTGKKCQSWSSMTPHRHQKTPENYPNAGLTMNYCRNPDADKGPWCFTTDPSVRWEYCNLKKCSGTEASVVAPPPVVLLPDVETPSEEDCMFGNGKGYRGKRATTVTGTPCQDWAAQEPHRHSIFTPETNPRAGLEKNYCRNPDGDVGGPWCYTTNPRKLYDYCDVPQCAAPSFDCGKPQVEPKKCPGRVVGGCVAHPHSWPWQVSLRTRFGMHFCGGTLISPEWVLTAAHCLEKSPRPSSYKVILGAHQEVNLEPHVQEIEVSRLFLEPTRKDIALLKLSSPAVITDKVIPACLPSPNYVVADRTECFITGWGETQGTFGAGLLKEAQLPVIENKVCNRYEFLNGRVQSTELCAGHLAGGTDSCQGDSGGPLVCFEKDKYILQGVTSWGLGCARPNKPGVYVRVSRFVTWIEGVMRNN
Chain of micro(μ)-plasmin (P00747 561-580, chain 1 of 2): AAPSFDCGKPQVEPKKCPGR
Chain of micro(μ)-plasmin (P00747 581-810, chain 2 of 2): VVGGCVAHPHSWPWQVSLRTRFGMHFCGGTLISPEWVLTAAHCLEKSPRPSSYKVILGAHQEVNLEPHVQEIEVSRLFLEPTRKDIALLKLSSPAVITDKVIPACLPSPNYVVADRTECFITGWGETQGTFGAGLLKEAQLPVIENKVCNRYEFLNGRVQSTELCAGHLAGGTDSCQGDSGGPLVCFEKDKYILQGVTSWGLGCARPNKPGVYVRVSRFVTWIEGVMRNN

binding result (micro(μ)-plasmin)	RU at 1 μM analyte (Glu-plasminogen) [RU]	Kd (Glu-plasminogen) [nM]	koff (Glu-plasminogen) [s⁻¹]	kon (Glu-plasminogen) [M⁻¹ s⁻¹]	Kd [1] [nM]	RU at 1 μM analyte [1] [RU]	koff [1] [s⁻¹]	kon [1] [M⁻¹ s⁻¹]	Binder
binds	12	–	–	–	–	–	–	–	KD1_(L17R)-VT (Kunitz domain 1 of tissue factor pathway inhibitor-2, Leu17Arg, with C-terminal valine) (domain or fragment, human) GSHMDAAQEPTGNNAEICLLPLDYGPCRARLLRYYYDRYTQSCRQFLYGGCEGNANNFYTWEACDDACWRIEKVPKV
binds	86	280	0.00031	1100	210	155	0.00019	910	KD1_(L17R)-KT (Kunitz domain 1 of tissue factor pathway inhibitor-2, Leu17Arg, with C-terminal lysine) (domain or fragment, human, UniProt P48307 30-94, looked up) GNNAEICLLPLDYGPCRARLLRYYYDRYTQSCRQFLYGGCEGNANNFYTWEACDDACWRIEKVPK
